B1: Hammerhead Ribozyme (parent)
chain: ACCGGAUGUGCUUUCCGGUCUGAUGAGUCCGUGAGGACGAAACAG

Variants of: B1
Assay: self-cleavage, relative activity (ratio to wild type); higher = more cleavage; co-transcriptional

First: ACCGGAUGUGCGUUCCGGUCUGAUGAGUCGGUGAGGACGAAACAG
Second: ACCGGAUGUGCUUUCCUGACUGAUGAGUCCGUGAGGACGAAACAG
The self-cleavage of the first is higher: 0.706 for the first, 0.361 for the second.

Compared with ACCGGAUGUUCUUUCCGGUCUGAUGAGUCCGUAAGGACGAAACAG, ACCGGAUGUGCUUUCCGAUCUGAUGAGUCCGUGAGCACGAAACAG is lower in self-cleavage: 1.13 for the first, 0.299 for the second.

Compared with ACCGGGUGUGCUUUCCGGUCUGAUGGGUCCGUGAGGACGAAACAG, ACCGGAUGUGUUUUCCGGUCUGAUGAGUCCGUGAGGACGAAUCAG is higher in self-cleavage: 0.303 for the first, 0.377 for the second.

ACCGGAUGUGCUUUCCGGUCUGAUGGGUCCGUGACGACGAAACAG and ACCUGAUGUGCUUUCCGGUCUGAUGACUCCGUGAGGACGAAACAG are the same in self-cleavage: 0.35 for the first, 0.35 for the second.

First: ACCGGCUGUGCUUUCCGGUCUGAUGAGUCCGUGAGAACGAAACAG
Second: ACCGGAUGUGCCUUCCGGUCUGAUGAGGCCGUGAGGACGAAACAG
The self-cleavage of the first is lower: 0.391 for the first, 0.543 for the second.

First: ACCGGAUGUGCUUUCCGGUCUGAUGAGCCCGUGAGGACGAAAGAG
Second: ACCGGAUGAGCUUUCCGGUCUGAUGAGUCCGUGAGGAUGAAACAG
The self-cleavage of the first is lower: 0.334 for the first, 1.23 for the second.

Compared with ACCGGAUGUGCUUUCCGGUCUGAUGAGUCCGUGAUGACGAAAAAG, ACCGGAUGUGUUUUCCGGUCUGAUGAGUCCGUGAGGACGAAACAU is higher in self-cleavage: 0.378 for the first, 0.497 for the second.

Compared with AGCGGAUGUGCUUUCCGGUAUGAUGAGUCCGUGAGGACGAAACAG, ACCGGAUGUGCUUACCGGUCUGAUGAGUCCGUGAGGCCGAAACAG is higher in self-cleavage: 0.274 for the first, 0.815 for the second.

Compared with ACCGGAUGUGCUUUCCGGUCUGGUGUGUCCGUGAGGACGAAACAG, ACCGGAUGUGCUUUCCGAUCUGAUGAGUCCGUGAGGACGAAACAU is higher in self-cleavage: 0.3 for the first, 0.469 for the second.

First: ACCGGAUGUGAUUUCCGGUCUGAUGAGUCCGUGAGGACGAAACGG
Second: ACCGUAUGUGCUUUCCGGUCUGAUGCGUCCGUGAGGACGAAACAG
The self-cleavage of the first is higher: 1.57 for the first, 0.357 for the second.

First: ACCGGAUGUGAAUUCCGGUCUGAUGAGUCCGUGAGGACGAAACAG
Second: ACCGGAUGUGCUUUCCGGUCUGAUGAGUCCUUGACGACGAAACAG
The self-cleavage of the first is higher: 0.977 for the first, 0.654 for the second.

First: ACCGGAUCUGCUUUCCGGUCUGAUGAGUCCGUGAUGACGAAACAG
Second: ACCGGAUGUGCUUUCCGGUAUGAUGAGUCCGUGAGGAGGAAACAG
The self-cleavage of the first is higher: 0.775 for the first, 0.429 for the second.

Compared with ACCGGAUGUGCUUUCCGUUCUGAUGAGUCCGUGAGGACGACACAG, ACCGGAUGUGCUUACCGGUCUCAUGAGUCCGUGAGGACGAAACAG is lower in self-cleavage: 0.427 for the first, 0.327 for the second.

Compared with ACCGGAUGUGCUUUCCGGUCUGAUGAGUCCGUGAUGACAAAACAG, ACCGGAUGUGCUUUCCGGUCUGAUGAGUCCUUCAGGACGAAACAG is higher in self-cleavage: 0.331 for the first, 1.08 for the second.

First: ACCGGAUGUGCUUUCCGGUCUGCUGAGUCCGUGAGCACGAAACAG
Second: ACCGGAUGUGCUUUACGGUCUGAUGAGUCCGUGAGGACGAAACAC
The self-cleavage of the first is lower: 0.351 for the first, 0.44 for the second.

Compared with ACCGGAUGUGCUUUCCGGUCUGAUGAGUCCGUGAGGCGGAAACAG, ACCGGAUGGGCUUUCCGGUCUGCUGAGUCCGUGAGGACGAAACAG is higher in self-cleavage: 0.381 for the first, 0.448 for the second.

Compared with ACCGGAUGUGCGUUCCGGUCUGAUGAGUCCGUGAGGAUGAAACAG, ACCGGAUGUGCUUUCCGGUCUGGAGAGUCCGUGAGGACGAAACAG is lower in self-cleavage: 1.08 for the first, 0.645 for the second.

First: ACCGGAUGUGCUUUCCGGUCUGCUGAGUCCGUGAGGACGACACAG
Second: ACCGGAUGUGAUUUCCGGUCUGAUGAGUCCGUGAGGACGGAACAG
The self-cleavage of the first is lower: 0.313 for the first, 0.346 for the second.

Compared with ACCGGAUGUUCUUUCCGGUCUGAUGAGUCCGUGAGGACGAAACAA, ACCGGAUGUGCUUUCCGGUCUGAUGAGUCCCUUAGGACGAAACAG is higher in self-cleavage: 0.694 for the first, 0.879 for the second.

First: ACCGGAUGUGCUUUCCGGUCGGAUGAGCCCGUGAGGACGAAACAG
Second: ACAGGAUGUGCUUUCCGGUCUGAUGAGUCCGUGAGCACGAAACAG
The self-cleavage of the first is higher: 0.381 for the first, 0.338 for the second.

Going from ACCGGAUGUGCUUUCCGGUCUGAUGAGUCCGCGAUGACGAAACAG to ACCGGAUGUGCGUUCCGGUCUGAUGAGUCCGUGCGGACGAAACAG, the self-cleavage rises from 0.795 to 0.841.

Compared with ACCGGAUGUGCGUUCCGGUCUGAUGAGUCCGUGGGGACGAAACAG, ACGGGAUGUGCUUUCCGGUCUUAUGAGUCCGUGAGGACGAAACAG is lower in self-cleavage: 0.909 for the first, 0.276 for the second.

Going from ACCGGAUGUGCUUUCCGGUCUGAUGAGUCCGUGAGUACGAUACAG to ACCGGAUGUGCUUUCCGGUCUCAUGAGUCCGUGCGGACGAAACAG, the self-cleavage falls from 0.372 to 0.283.

Going from ACCGGAUGUGGUCUCCGGUCUGAUGAGUCCGUGAGGACGAAACAG to ACCGCAUGUGCGUUCCGGUCUGAUGAGUCCGUGAGGACGAAACAG, the self-cleavage falls from 1.32 to 0.773.

Compared with ACCGGAUGUGCUUUCCAGUCUGAUGAGUCCGUGAGGACGAGACAG, ACCGGAUGUGCUUUCCGGUCAGAUGAGUCCGCGAGGACGAAACAG is higher in self-cleavage: 0.332 for the first, 0.508 for the second.

Going from ACCGGAUGUGCUUUCCGGUCUGAUGAGUCCGUGCGGACGAAACGG to ACGGGAUGUGCUUUCCGGUCUGAUGAGUCAGUGAGGACGAAACAG, the self-cleavage falls from 0.727 to 0.353.

Compared with ACAGGAUGAGCUUUCCGGUCUGAUGAGUCCGUGAGGACGAAACAG, ACGGGAUGUGCUUUCCGUUCUGAUGAGUCCGUGAGGACGAAACAG is higher in self-cleavage: 0.476 for the first, 0.535 for the second.

Going from ACCGGAUGCGCUUUCCGGUCUGAUGAGUCCGUGAGGACGACACAG to ACCGGGUGUGCUUUCCGGUCUGAUGAGCCCGUGAGGACGAAACAG, the self-cleavage rises from 0.407 to 0.792.

With CCCGGAUGUGCUUUCCGGUCUGAUGAGUCUGUGAGGACGAAACAG the self-cleavage was 0.364.

From the RNAGym collection of RNA variant scans (doi:10.7554/elife.80360)
